Numbering of substitutions follows the chain as printed.

These results are taken from PMC12609908.

Holding throughout (assay): EMSA
What all share (conditions): 50 mM Tris-HCl pH 8.0, 100 mM NaCl, 40% glycerol, 5 mM DTT, 2 mM EDTA, 4 °C 1 h; 10% native PAGE in 0.5x TBE at 4 °C
(Mobility shift assays separate free from complexed probe on a gel.)

The target in series [1] is T1, CutR Q38A Q38A (Mycobacterium sp. strain JC1) (UniProt D5G1X9).
T1 sequence: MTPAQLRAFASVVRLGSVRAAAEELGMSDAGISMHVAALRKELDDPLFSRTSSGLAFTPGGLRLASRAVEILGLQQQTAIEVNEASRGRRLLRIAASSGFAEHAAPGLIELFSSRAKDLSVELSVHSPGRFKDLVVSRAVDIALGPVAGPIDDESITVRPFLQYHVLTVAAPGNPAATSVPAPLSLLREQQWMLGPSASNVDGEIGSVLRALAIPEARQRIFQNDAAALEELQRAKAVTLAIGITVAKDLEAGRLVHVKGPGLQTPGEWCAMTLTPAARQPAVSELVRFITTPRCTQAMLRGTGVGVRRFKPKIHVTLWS

For series [2], the target named is T2, CutR Q5A Q5A (Mycobacterium sp. strain JC1) (UniProt D5G1X9).
T2 sequence: T1 sequence with Q5A, A38Q

For series [3], the target named is T3, CutR R19A R19A (Mycobacterium sp. strain JC1) (UniProt D5G1X9).
T3 sequence: T1 sequence with R19A, A38Q

Series [4] deals with T4, CutR R40A R40A (Mycobacterium sp. strain JC1) (UniProt D5G1X9).
T4 sequence: T1 sequence with A38Q, R40A

The target in series [5] is T5, CutR R7A R7A (Mycobacterium sp. strain JC1) (UniProt D5G1X9).
T5 sequence: T1 sequence with R7A, A38Q

With “ACCCCGAGTTAAGTGATTCCTTAACTCGCTATTGACGCCATCGCGGCGGCAACGGAAACTAGCCACTTCAGCCACGACGTTGTGAGGATGATCACATGCAA (double strand) [IR1 to CRP motif fragment (101 bp)]”, the binding result in series [1] is recorded as “binds”; in series [2], “binds”; in series [3], “binds”; in series [4] it was “no binding”; in series [5], “binds”.
